Measurements reported in US20220204640A1 (Genentech, published 2022).

Columns and labels:
[1] = biological target: T1, TAT211 polypeptide on the surface of cells (human, UniProt O95436 1-690); assay: Scatchard analysis on cells, IgG
T1 construct: Expressed endogenously (OVCAR-3, OVCAR4, Igrov1, P828, P701sc20) or recombinantly (293/TAT211) on the cell surface
T1 sequence: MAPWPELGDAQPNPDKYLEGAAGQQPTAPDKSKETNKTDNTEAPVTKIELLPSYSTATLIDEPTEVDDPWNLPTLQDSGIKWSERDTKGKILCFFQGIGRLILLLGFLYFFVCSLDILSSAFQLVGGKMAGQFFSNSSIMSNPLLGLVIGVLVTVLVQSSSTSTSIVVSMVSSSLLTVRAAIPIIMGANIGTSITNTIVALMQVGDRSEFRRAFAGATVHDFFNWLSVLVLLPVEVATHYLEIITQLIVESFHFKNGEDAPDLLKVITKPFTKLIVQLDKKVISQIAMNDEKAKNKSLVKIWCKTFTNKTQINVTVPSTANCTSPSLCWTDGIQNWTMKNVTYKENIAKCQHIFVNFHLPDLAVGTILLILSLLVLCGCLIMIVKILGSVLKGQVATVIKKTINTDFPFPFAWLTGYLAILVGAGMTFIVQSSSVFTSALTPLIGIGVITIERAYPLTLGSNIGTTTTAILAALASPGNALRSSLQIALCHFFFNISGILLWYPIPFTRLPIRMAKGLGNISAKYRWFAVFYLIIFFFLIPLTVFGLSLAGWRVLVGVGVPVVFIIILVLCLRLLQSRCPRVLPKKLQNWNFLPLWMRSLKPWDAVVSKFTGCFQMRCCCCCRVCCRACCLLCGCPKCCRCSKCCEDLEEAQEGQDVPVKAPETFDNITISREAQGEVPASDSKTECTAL

[2] = biological target: T2, CHO derived TAT211 extracellular domain (glycosylated, immunoadhesin / Fc fusion) (human, UniProt O95436 234-362, glycosylated (CHO)); assay: surface plasmon resonance for the Fab, compared with mu10H1
T2 construct: not shown: Fc part of the immunoadhesin
T2 sequence: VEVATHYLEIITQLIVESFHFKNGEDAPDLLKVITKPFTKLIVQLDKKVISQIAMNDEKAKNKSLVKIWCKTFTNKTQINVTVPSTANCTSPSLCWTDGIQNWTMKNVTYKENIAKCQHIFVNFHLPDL

[3] = biological target: T2, CHO derived TAT211 extracellular domain …; assay: surface plasmon resonance (Biacore), TAT211 extracellular domain immobilized
Method: TAT211 extracellular domain (glycosylated) was immobilized (approximately 100-400 RU, in 10 mM Sodium Acetate pH 4.8 on a CM5 sensor chip) and the 10H1 antibody variant served as the analyte (injected at a flow rate of 30 μL/min, using a 2-fold serial dilution of 4 to 1000 nM in PBST). Each sample was analyzed with 4-minute association and 10-minute disassociation. After each injection the chip was regenerated using 10 mM Glycine pH 1.7.

[4] = biological target: T1, TAT211 polypeptide on the surface of …; assay: Scatchard analysis on P701sc20 cells expressing TAT211; P701sc20 cells
[5] = biological target: T1, TAT211 polypeptide on the surface of …; assay: Scatchard analysis on Igrov1 cells expressing TAT211; Igrov1 cells
[6] = biological target: T1, TAT211 polypeptide on the surface of …; assay: Scatchard analysis on P828 cells expressing TAT211; P828 cells
[7] = biological target: T1, TAT211 polypeptide on the surface of …; assay: Scatchard analysis on OVCAR4 cells expressing TAT211; OVCAR4 cells

B1: humanized anti-TAT211 antibody 10H1.11.4B (IgG) (antibody, V domains shown)
VH: EVQLVESGGGLVQPGGSLRLSCAASGFSFSDFAMSWVRQAPGKGLEWVATIGRVAFHTYYPDSMKGRFTISRDNSKNTLYLQMNSLRAEDTAVYYCARHRGFDVGHFDFWGQGTLVTVSS
VL: DIQMTQSPSSLSASVGDRVTITCRSSETLVHSSGNTYLEWYQQKPGKAPKLLIYRVSNRFSGVPSRFSGSGSGTDFTLTISSLQPEDFATYYCFQGSFNPLTFGQGTKVEIKR
binding result [1]: binds

B2: 10H1-graft as a Fab (Fab, V domains shown)
VH: EVQLVESGGGLVQPGGSLRLSCAASGFSFSDFAMSWVRQAPGKGLEWVATIGRVASHTYYPDSMKGRFTISRDNSKNTLYLQMNSLRAEDTAVYYCVRHRGFDVGHFDFWGQGTLVTVSS
VL: DIQMTQSPSSLSASVGDRVTITCRSSETLVHSNGNTYLEWYQQKPGKAPKLLIYRVSNRFSGVPSRFSGSGSGTDFTLTISSLQPEDFATYYCFQGSHNPLTFGQGTKVEIKR
notes: Fab expressed in E. coli from the phage display vector; also called 10H1 anti-TAT211 grafted humanized antibody
fold loss of affinity relative to the mu10H1 hybridoma antibody [2]: ~2 fold | Kd [3]: 74 nM

B3: murine monoclonal antibody 10H1 (antibody, V domains shown)
VH: EVMLVESGGGLVRPGGSLKVSCAASGFSFSDFAMSWVRRTPDKRLEWVATIGRVASHTYYPDSMKGRFTISRDNAKNTLYLQMNSLRSDDTAIYYCVRHRGFDVGHFDFWGQGTLLTVSA
VL: DILMTQTPLSLPVSLGDQASISCRSSETLVHSNGNTYLEWYLQKLGQPPKLLIYRVSNRFSGVPDRFSGSGSGTDFTLKISRLEAEDLGVYYCFQGSHNPLTFGAGTKVEIKR
notes: Murine hybridoma IgG; also called mu10H1; murine 10H1
Kd [4]: 59 nM | Kd [5]: 61 nM | Kd [6]: 36 nM | Kd [7]: 37 nM
